In US20170065725A1:

What follows are substances tested against porcine TSH receptor (immobilized, TSH Receptor Autoantibody 2nd Generation ELISA kit, RSR Limited) (porcine) (UniProt Q8SPP9) (assay: competition ELISA; inhibition of biotinylated rhTSH binding to immobilized porcine TSH receptor).
Chain of porcine TSH receptor (immobilized, TSH Receptor Autoantibody 2nd Generation ELISA kit, RSR Limited) (porcine) (Q8SPP9 22-764 limits assumed): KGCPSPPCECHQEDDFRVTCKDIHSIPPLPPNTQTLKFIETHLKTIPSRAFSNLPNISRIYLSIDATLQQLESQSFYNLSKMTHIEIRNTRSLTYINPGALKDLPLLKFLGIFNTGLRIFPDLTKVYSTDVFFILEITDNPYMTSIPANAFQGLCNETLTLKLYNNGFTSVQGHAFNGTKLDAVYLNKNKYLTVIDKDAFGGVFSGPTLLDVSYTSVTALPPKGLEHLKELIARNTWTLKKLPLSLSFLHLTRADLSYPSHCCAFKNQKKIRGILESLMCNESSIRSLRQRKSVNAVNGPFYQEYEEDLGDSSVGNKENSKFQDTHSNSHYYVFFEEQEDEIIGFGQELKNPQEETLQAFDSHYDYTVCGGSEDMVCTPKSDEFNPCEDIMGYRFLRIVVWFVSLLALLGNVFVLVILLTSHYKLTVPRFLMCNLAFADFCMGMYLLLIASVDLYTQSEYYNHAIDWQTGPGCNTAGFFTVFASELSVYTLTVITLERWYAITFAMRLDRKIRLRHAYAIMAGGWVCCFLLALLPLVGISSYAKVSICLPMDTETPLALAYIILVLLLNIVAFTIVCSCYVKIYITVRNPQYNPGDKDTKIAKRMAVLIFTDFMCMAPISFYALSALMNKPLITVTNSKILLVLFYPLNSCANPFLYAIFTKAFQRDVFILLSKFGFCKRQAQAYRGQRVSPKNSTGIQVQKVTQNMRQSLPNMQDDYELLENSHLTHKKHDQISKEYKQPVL

Chain of PEG rhTSH (20 KD GAM+), monoPEGylated (ligand) (P01215 25-116): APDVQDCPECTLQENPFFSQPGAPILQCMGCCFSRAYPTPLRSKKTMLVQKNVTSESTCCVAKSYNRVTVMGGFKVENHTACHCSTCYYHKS
Chain of PEG rhTSH (20 KD GAM+), monoPEGylated (ligand) (P01222 21-138, further chain): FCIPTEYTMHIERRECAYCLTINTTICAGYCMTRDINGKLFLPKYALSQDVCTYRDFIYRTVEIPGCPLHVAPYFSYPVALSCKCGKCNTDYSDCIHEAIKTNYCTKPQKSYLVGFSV
Chain of mono-40 kDa NHS PEG-TSH (Lysine PEGylation) (ligand) (P01215 25-116): as the sequence (P01215 25-116) above
Chain of mono-40 kDa NHS PEG-TSH (Lysine PEGylation) (ligand) (P01222 21-138, further chain): as the sequence (P01222 21-138, further chain) above
Chain of PEG rhTSH (20 KD SAM), monoPEGylated (ligand) (P01215 25-116): as the sequence (P01215 25-116) above
Chain of PEG rhTSH (20 KD SAM), monoPEGylated (ligand) (P01222 21-138, further chain): as the sequence (P01222 21-138, further chain) above
Chain of PEG rhTSH (40 KD GAM-), monoPEGylated (ligand) (P01215 25-116): as the sequence (P01215 25-116) above
Chain of PEG rhTSH (40 KD GAM-), monoPEGylated (ligand) (P01222 21-138, further chain): as the sequence (P01222 21-138, further chain) above
Chain of PEG rhTSH (40 KD GAM+), monoPEGylated (ligand) (P01215 25-116): as the sequence (P01215 25-116) above
Chain of PEG rhTSH (40 KD GAM+), monoPEGylated (ligand) (P01222 21-138, further chain): as the sequence (P01222 21-138, further chain) above
Chain of PEG rhTSH (40 KD SAM), monoPEGylated (ligand) (P01215 25-116): as the sequence (P01215 25-116) above
Chain of PEG rhTSH (40 KD SAM), monoPEGylated (ligand) (P01222 21-138, further chain): as the sequence (P01222 21-138, further chain) above
Chain of PEG rhTSH (10 KD SAM), monoPEGylated (ligand) (P01215 25-116): as the sequence (P01215 25-116) above
Chain of PEG rhTSH (10 KD SAM), monoPEGylated (ligand) (P01222 21-138, further chain): as the sequence (P01222 21-138, further chain) above
Chain of PEG rhTSH (10 KD MultiSAM) (ligand) (P01215 25-116): as the sequence (P01215 25-116) above
Chain of PEG rhTSH (10 KD MultiSAM) (ligand) (P01222 21-138, further chain): as the sequence (P01222 21-138, further chain) above
Chain of PEG rhTSH (20 KD GAM-), monoPEGylated (ligand) (P01215 25-116): as the sequence (P01215 25-116) above
Chain of PEG rhTSH (20 KD GAM-), monoPEGylated (ligand) (P01222 21-138, further chain): as the sequence (P01222 21-138, further chain) above

Point of comparison: “PEG rhTSH (40 KD SAM), monoPEGylated (ligand)”, IC50 196 nM. Against it:
- PEG rhTSH (10 KD MultiSAM) (ligand) — within 1.5-fold, 138 nM
- PEG rhTSH (10 KD SAM), monoPEGylated (ligand) — 2.5-fold lower, 78.1 nM
- PEG rhTSH (40 KD GAM+), monoPEGylated (ligand) — within 1.5-fold, 133 nM
- PEG rhTSH (20 KD GAM-), monoPEGylated (ligand) — 1.9-fold lower, 101 nM
- mono-40 kDa NHS PEG-TSH (Lysine PEGylation) (ligand) — 4.5-fold higher, 876 nM
- PEG rhTSH (40 KD GAM-), monoPEGylated (ligand) — 1.5-fold higher, 294 nM
- PEG rhTSH (20 KD GAM+), monoPEGylated (ligand) — 2.4-fold lower, 81.7 nM
- PEG rhTSH (20 KD SAM), monoPEGylated (ligand) — 2.1-fold lower, 92.3 nM

Point of comparison: “PEG rhTSH (40 KD GAM-), monoPEGylated (ligand)”, fold change (IC50 against rhTSH) 8 fold. Against it:
- PEG rhTSH (10 KD MultiSAM) (ligand) — lower, 3.8 fold
- PEG rhTSH (10 KD SAM), monoPEGylated (ligand) — lower, 2.1 fold
- PEG rhTSH (40 KD GAM+), monoPEGylated (ligand) — lower, 3.6 fold
- PEG rhTSH (20 KD GAM-), monoPEGylated (ligand) — lower, 2.7 fold
- mono-40 kDa NHS PEG-TSH (Lysine PEGylation) (ligand) — higher, 31.2 fold
- PEG rhTSH (40 KD SAM), monoPEGylated (ligand) — lower, 5.3 fold
- PEG rhTSH (20 KD GAM+), monoPEGylated (ligand) — lower, 2.2 fold
- PEG rhTSH (20 KD SAM), monoPEGylated (ligand) — lower, 2.5 fold
